Measured values as given in PMC3115401 (Traffic (Copenhagen, Denmark), 2011).
Numbering of substitutions follows the chain as printed. Names may count otherwise. Each block holds one binder with its values, some of them ahead of it.

Legend:
GST-Kap60 = biological target: T1, GST-Kap60 (S. cerevisiae, UniProt Q02821 1-542); test: pull-down
T1 sequence (looked up): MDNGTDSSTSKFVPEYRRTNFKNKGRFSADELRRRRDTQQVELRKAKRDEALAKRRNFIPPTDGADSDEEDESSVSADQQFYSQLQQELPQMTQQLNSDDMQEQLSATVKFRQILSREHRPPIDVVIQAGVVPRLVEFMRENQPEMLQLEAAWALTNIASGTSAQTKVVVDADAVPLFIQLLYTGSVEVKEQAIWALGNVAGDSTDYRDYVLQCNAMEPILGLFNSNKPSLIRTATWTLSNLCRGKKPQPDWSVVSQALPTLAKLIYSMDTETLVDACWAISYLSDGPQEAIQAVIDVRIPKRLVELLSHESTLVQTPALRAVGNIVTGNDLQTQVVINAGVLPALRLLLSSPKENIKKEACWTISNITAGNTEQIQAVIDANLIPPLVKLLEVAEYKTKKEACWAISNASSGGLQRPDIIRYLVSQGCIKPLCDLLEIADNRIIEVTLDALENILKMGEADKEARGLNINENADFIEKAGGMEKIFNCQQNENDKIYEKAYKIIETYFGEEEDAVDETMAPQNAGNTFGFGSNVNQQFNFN

GST-Rtt109 = biological target: T2, GST-Rtt109 (S. cerevisiae, UniProt Q07794 1-436); test: pull-down
T2 sequence (looked up): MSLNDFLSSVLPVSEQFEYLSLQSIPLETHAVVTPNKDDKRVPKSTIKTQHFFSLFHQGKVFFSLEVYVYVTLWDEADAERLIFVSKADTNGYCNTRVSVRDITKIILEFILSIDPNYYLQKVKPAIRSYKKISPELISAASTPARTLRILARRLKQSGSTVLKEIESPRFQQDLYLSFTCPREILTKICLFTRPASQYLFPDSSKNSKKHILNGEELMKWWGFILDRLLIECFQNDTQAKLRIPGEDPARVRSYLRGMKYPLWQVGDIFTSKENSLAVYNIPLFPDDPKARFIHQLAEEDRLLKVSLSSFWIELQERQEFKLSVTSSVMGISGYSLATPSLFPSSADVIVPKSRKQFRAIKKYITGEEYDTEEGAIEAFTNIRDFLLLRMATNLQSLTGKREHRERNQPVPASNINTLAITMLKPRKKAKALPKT

- binding result (GST-Kap60): binds
- binding result (GST-Rtt109): binds
B1: MBP-Vps75 wild type (natural protein, S. cerevisiae, UniProt P53853 1-264, looked up)
chain: MMSDQENENEHAKAFLGLAKCEEEVDAIEREVELYRLNKMKPVYEKRDAYIDEIAEFWKIVLSQHVSFANYIRASDFKYIDTIDKIKVDWLALESEMYDTRDFSITFHFHGIEGDFKEQQVTKVFQIKKGKDDQEDGILTSEPVPIEWPQSYDSINPDLIKDKRSPEGKKKYRQGMKTIFGWFRWTGLKPGKEFPHGDSLASLFSEEIYPFCVKYYAEAQRDLEDEEGESGLSADGDSEDDDGSLGEVDLPLSDEEPSSKKRKV

- binding result (GST-Rtt109): binds
B2: MBP-Vps75(K260G, K261G) (natural protein, S. cerevisiae, UniProt P53853 1-264, looked up)
chain: B1 chain with K260G, K261G

- binding result (GST-Rtt109): binds
B3: MBP-Vps75(1–222) (domain or fragment, S. cerevisiae, UniProt P53853 1-222, looked up)
chain: MMSDQENENEHAKAFLGLAKCEEEVDAIEREVELYRLNKMKPVYEKRDAYIDEIAEFWKIVLSQHVSFANYIRASDFKYIDTIDKIKVDWLALESEMYDTRDFSITFHFHGIEGDFKEQQVTKVFQIKKGKDDQEDGILTSEPVPIEWPQSYDSINPDLIKDKRSPEGKKKYRQGMKTIFGWFRWTGLKPGKEFPHGDSLASLFSEEIYPFCVKYYAEAQRD
